Laboratory results as given in patent publication US20230220057A1 (STAIDSON BEIJING BIOPHARMACEUTICALS, published 2023).
Read-outs that look alike come from different tables or passages of the source.

T1: BDNF (UniProt P23560 129-247)
T1 construct: also called brain-derived neurotrophic factor
T1 sequence (looked up): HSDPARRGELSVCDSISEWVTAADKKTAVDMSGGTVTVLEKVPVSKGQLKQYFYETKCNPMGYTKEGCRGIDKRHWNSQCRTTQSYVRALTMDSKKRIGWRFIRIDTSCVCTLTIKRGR

T2: NT4 (UniProt P34130 81-210)
T2 construct: also called neurotrophin-4
T2 sequence (looked up): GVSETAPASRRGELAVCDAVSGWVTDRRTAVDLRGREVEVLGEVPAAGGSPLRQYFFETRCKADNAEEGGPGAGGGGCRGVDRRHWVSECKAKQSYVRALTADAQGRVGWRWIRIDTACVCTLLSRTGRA

T3: NT3 (UniProt P20783 139-257)
T3 construct: also called neurotrophin-3
T3 sequence (looked up): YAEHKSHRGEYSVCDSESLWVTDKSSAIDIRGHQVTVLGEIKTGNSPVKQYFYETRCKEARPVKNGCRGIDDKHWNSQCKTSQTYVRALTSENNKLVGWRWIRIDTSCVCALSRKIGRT


How the values were obtained:
[1] = molecular target: T4, human NGF-Fc4 (IgG4-Fc) (human, UniProt P01138 122-241, limits assumed); test: competition ELISA: antibody pre-incubated with human NGF-Fc4, binding to coated TrkA-Fc
T4 construct: not shown: human IgG4 Fc
T4 sequence (P01138 122-241 limits assumed): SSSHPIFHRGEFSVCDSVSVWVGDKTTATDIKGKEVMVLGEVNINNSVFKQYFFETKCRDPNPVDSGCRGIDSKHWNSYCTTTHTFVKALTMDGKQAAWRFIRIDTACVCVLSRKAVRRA
Experimental: TrkA inhibition ELISA assay: The TrkA inhibition ELISA assay was designed to identify the anti-NGF antibodies that have the capability of blocking NGF binding to its receptor TrkA. In this assay, human TrkA-Fc (IgG1-Fc, Sinobiological) was coated at 1 μg/ml in the 96-well plates and incubated overnight at 4° C. Antibodies, from cell culture supernatants or after purified, in different dilutions, were pre-incubated with human NGF-Fc4 (IgG4-Fc) at a final concentration of 70 ng/mL for 2 hours in 37° C. A total of 50 μl of the reaction mixtures were then transferred into the TrkA-Fc coated 96-well plates and incubated in room temperature for 2 hours. After washing, a secondary mouse anti-human IgG4-AP (Southern biotech) was added at a dilution of 1:1000 After one hour in room temperature, the plates were washed, and after adding PNPP substrate, ODs at 405 nm were read.
TrkA inhibition ELISA assay: The optimized anti-NGF antibodies Ab4, Ab6, Ab10, Ab16, Ab36, Ab37, Ab44, Ab45, Ab46, Ab47, Ab48, Ab49, Ab52, Ab54, Ab55, Ab56, Ab57, Ab58, Ab59, Ab60, Ab61 and the reference antibody Tanezumab (Pfizer), a humanized antibody from mouse hybridoma were further analyzed for their abilities to block NGF binding to its receptor TrkA. TrkA inhibition assay was performed as described in Example 1.

[2] = molecular target: T5, human NGF (R&D system) (human, UniProt P01138 122-241); test: cell-based or functional assay
T5 sequence (P01138 122-241 limits assumed): as above

[3] = molecular target: recombinantly produced human-NGF (human, UniProt P01138 122-241, limits assumed); test: ELISA, human NGF coated, IgG titrated
recombinantly produced human-NGF, sequence (P01138 122-241 limits assumed): as above
Procedure, shortened: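 Plates coated overnight at 4 °C with recombinant human NGF at 1 μg/ml, blocked with PBS/1% BSA. Serially diluted purified antibodies or 1:1 supernatants bound 2 h at 37 °C; detection with AP anti-human IgG Fc (1:3000, 1 h RT), PNPP substrate, OD 405 nm.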

[4] = molecular target: T4, human NGF-Fc4 (IgG4-Fc); test: competition ELISA: antibody pre-incubated with human NGF-Fc4, binding to coated p75-Fc
Experimental: p75 inhibition ELISA assay: The p75 inhibition assay was designed to identify anti-NGF antibodies that were capable of inhibiting NGF binding to p75. In this assay, human p75-Fc (IgG1-Fc, Sinobiological) was coated at 1 μg/mL in the 96-well plates and incubated overnight at 4° C. Anti-NGF antibodies, from supernatants directly or after purified, in different dilutions, were pre-incubated with human NGF-Fc4 (IgG4-Fc) at a final concentration of 350 ng/mL for 2 hours in 37° C. A total of 50 μl of the reaction mixtures were then transferred into the p75-Fc coated 96-well plates and incubated in room temperature for 2 hrs. After washing, a secondary mouse anti-human IgG4-AP (Southern biotech) was added at a dilution of 1:1000. After 1 hour in room temperature, the plates were washed, and after adding PNPP substrate, ODs at 405 nm were read.
p75 inhibition ELISA assay: The optimized anti-NGF antibodies Ab4, Ab61, and the reference antibody Tanezumab, a humanized antibody from mouse hybridoma were further analyzed for their abilities to block NGF binding to its receptor p75. P75 inhibition assay was performed as described in Example 1.

[5] = molecular target: T5, human NGF (R&D system); test: cell-based or functional assay; remark: listed apart in the source
[6] = molecular target: T1, BDNF; test: ELISA
[7] = molecular target: T2, NT4; test: ELISA
[8] = molecular target: T3, NT3; test: ELISA
[9] = molecular target: T5, human NGF (R&D system); test: cell-based or functional assay; remark: listed apart in the source
[10] = molecular target: T5, human NGF (R&D system); test: cell-based or functional assay; remark: listed apart in the source

| IC50 [1] [µg/mL] | Chicken DRG Neurite Outgrowth Inhibition Assay IC50 [2] [pM] | TF1 Cell Proliferation Inhibition Assay IC50 [2] [pM] | EC50 [3] [ng/mL] | IC50 [4] [µg/mL] | TF1 Cell Proliferation Inhibition Assay IC50 [5] [pM] | binding result [6] | binding result [7] | binding result [8] | ERK1/2 Signaling Pathway Inhibition Assay IC50 (PC12 cells) [9] [pM] | Chicken DRG Neurite Outgrowth Inhibition Assay IC50 [10] [pM] | Binder |
| --- | --- | --- | --- | --- | --- | --- | --- | --- | --- | --- | --- |
| 0.0702 |  |  | 0.0257 |  | 184 | no binding (tested: 100 µg/mL) | no binding (tested: 100 µg/mL) | no binding (tested: 100 µg/mL) |  |  | Ab54 (antibody, human IgG1, V domains shown) VH: EVQLVQSGAEVKKPGESLKISCKISGYSFITYWISWVRQMPGKGLEWMGAIDPSDSDARYSPSFQGQVTISADKSISTAYLQWSSLKASDTAMYYCAKSDPGYSGYSLLYGFDSWGQGTLVTVSS VL: DVVMTQSPLSLPVTLGQPASISCRSSQSLVQRNGNTYLSWYQQRPGQSPRLLIYQVSNRYSGVPDRFSGSGSGTDFTLKISRVEAEDVGVYYCGQGAHLPLTFGQGTKVEIK |
| 0.0899 |  |  | 0.0218 |  | 234 | no binding (tested: 100 µg/mL) | no binding (tested: 100 µg/mL) | no binding (tested: 100 µg/mL) |  |  | Ab36 (antibody, human IgG1, V domains shown) VH: EVQLVQSGAEVKKPGATVKISCKVSGYTFITYWISWVQQAPGKGLEWMGAIDPSDSDARYSPSFQGRVTITADKSTDTAYMELSSLRSEDTAVYYCAKSDPGYSGYSLLYGFDSWGQGTLVTVSS VL: DVVMTQSPLSLPVTLGQPASISCRSSQSLVQRNGNTYLSWFQQRPGQPPRLLIYQVSNRYSGVPDRFSGSGSGTDFTLKISRVEAEDVGVYYCGQGAHLPLTFGQGTKVEIK |

The remaining lines, values behind:

| Binder | IC50 [1] [µg/mL] | Chicken DRG Neurite Outgrowth Inhibition Assay IC50 [2] [pM] | TF1 Cell Proliferation Inhibition Assay IC50 [2] [pM] | EC50 [3] [ng/mL] | IC50 [4] [µg/mL] | TF1 Cell Proliferation Inhibition Assay IC50 [5] [pM] | binding result [6] | binding result [7] | binding result [8] | ERK1/2 Signaling Pathway Inhibition Assay IC50 (PC12 cells) [9] [pM] | Chicken DRG Neurite Outgrowth Inhibition Assay IC50 [10] [pM] |
| --- | --- | --- | --- | --- | --- | --- | --- | --- | --- | --- | --- |
| Tanezumab (antibody, part only; not given: constant regions, V domains shown, not shown: another chain or arm of the molecule) VH: QVQLQESGPGLVKPSETLSLTCTVSGFSLIGYDLNWIRQPPGKGLEWIGIIWGDGTTDYNSAVKSRVTISKDTSKNQFSLKLSSVTAADTAVYYCARGGYWYATSYYFDYWGQGTLVTVSS VL: DIQMTQSPSSLSASVGDRVTITCRASQSISNNLNWYQQKPGKAPKLLIYYTSRFHSGVPSRFSGSGSGTDFTFTISSLQPEDIATYYCQQEHTLPYTFGQGTKLEIK | 0.0602 | 72.7 | 170 | 0.00937 | 0.525 |  |  |  |  |  |  |
| Ab6 (antibody, human IgG1, V domains shown) VH: EVQLVQSGAEVKKPGATVKISCKVSGYTFITYWISWVQQAPGKGLEWMGAIDPSDSDARYSPSFQGRVTITADTSTDTAYMELSSLRSEDTAVYYCAKSDPGYSGYSLLYGFDSWGQGTLVTVSS VL: DVVMTQSPLSLPVTLGQPASISCRSSQSLVQRNGNTYLSWFQQRPGQPPRLLIYQVSNRYSGVPDRFSGSGSGTDFTLKISRVEAEDVGVYYCGQGAHLPLTFGQGTKVEIK | 0.0769 |  |  | 0.021 |  | 170 | no binding (tested: 100 µg/mL) | no binding (tested: 100 µg/mL) | no binding (tested: 100 µg/mL) |  |  |
| Ab44 (antibody, human IgG1, V domains shown) VH: EVQLVQSGAEVKKPGESLKISCKGSGYSFITYWISWVRQMPGKGLEWMGAIDPSDSDARYSPSFQGQVTISADKSISTAYLQWSSLKASDTAMYYCAKSDPGYSGYSLLYGFDSWGQGTLVTVSS VL: DVVMTQSPLSLPVTLGQPASISCRSSQSLVQRNGNTYLSWYQQRPGQSPRLLIYQVSNRYSGVPDRFSGSGSGTDFTLKISRVEAEDVGVYYCGQGAHLPLTFGQGTKVEIK | 0.13 |  |  | 0.0129 |  |  | no binding (tested: 100 µg/mL) | no binding (tested: 100 µg/mL) | no binding (tested: 100 µg/mL) |  |  |
| Ab4 (antibody, human IgG1, V domains shown) VH: EVQLVQSGAEVKKPGATVKISCKVSGYTFITYWISWVQQAPGKGLEWMGAIDPSDSDARYSPSFQGRVTITADTSTDTAYMELSSLRSEDTAVYYCAKSDPGYSGYSLLYGFDSWGQGTLVTVSS VL: DVVMTQSPLSLPVTLGQPASISCRSSQSLVQRNGNTYLSWYQQRPGQSPRLLIYQVSNRYSGVPDRFSGSGSGTDFTLKISRVEAEDVGVYYCGQGAHLPLTFGQGTKVEIK | 0.0746 |  |  | 0.0124 | 0.481 | 174 | no binding (tested: 100 µg/mL) | no binding (tested: 100 µg/mL) | no binding (tested: 100 µg/mL) | 131 | 66.3 |
| Ab61 (antibody, human IgG1, V domains shown) VH: EVQLVQSGAEVKKPGATVKISCKVSGYTFITYWISWVQQAPGKGLEWMGAIDPSDSDARYSPSFQGRVTITADTSTDTAYMELSSLRSEDTAVYYCAKSDPGYSGYSLLYGFDSWGQGTLVTVSS VL: DVVMTQSPLSLPVTLGQPASISCRSSQSLVQRNANTYLSWYQQRPGQSPRLLIYQVSNRYSGVPDRFSGSGSGTDFTLKISRVEAEDVGVYYCGQGAHLPLTFGQGTKVEIK | 0.07 |  |  | 0.014 | 0.577 | 346 |  |  |  | 174 | 78.6 |
